Test results as given in patent US20210285971A1 (ROYAL INSTITUTION FOR THE ADVANCEMENT OF LEARNING MCGILL …, published 2021).

Assays:
synthetic Aβ35 peptide = target: T1, synthetic Aβ35 peptide (UniProt P05067 672-706); assay: SPR (Biacore T200), single-cycle kinetics, peptide as analyte (7.8-2000 nM) over mab34 captured on an anti-mouse Fc sensor
T1 construct: domain: Aβ35
Procedure: (§1) Using a BIACORE T200 system (GE Healthcare Bio-Sciences AB, Upsala, Sweden; v2.0 Control and v1.0 Evaluation software), SPR experiments were performed at 25° C. using filtered (0.2 μm) and degassed HBS-EP+ buffer (10 mM HEPES pH 7.4; 150 mM NaCl; 3 mM EDTA; 0.05% (v/v) Tween™-20). Using Biacore's Amine Coupling Kit, Mouse Antibody Capture Kit, and CM5 sensors, an anti-mouse Fc antibody (14 μg/mL in 10 mM sodium acetate pH 5.0) was immobilized to the flow cells (8000 RU each) as recommended by GE. To assess binding specificity, a variety of Aβ peptides (0 2 μM; 4-fold dilution series) were titrated over reference (anti-mouse Fc antibody only) and active (1000 RU mab34 captured to anti-mouse Fc antibody) surfaces in single-cycle kinetic mode (25 uL/min.×5 min. association+10 min. dissociation). Between each sample series, surfaces were regenerated at 50 μL/min. using two 30 sec pulses of Pierce Gentle Ag/Ab Elution Buffer pH 6.6 (Thermo Scientific #21027) as well as 10 mM glycine pH 1.7.

synthetic Aβ38 peptide = target: T2, synthetic Aβ38 peptide (UniProt P05067 672-709); assay: as above
T2 construct: domain: Aβ38
T2 sequence (P05067 672-709 limits assumed): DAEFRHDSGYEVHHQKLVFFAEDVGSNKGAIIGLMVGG
Procedure: as §1

synthetic Aβ40 peptide = target: T3, synthetic Aβ40 peptide (UniProt P05067 672-711); assay: as above
T3 construct: domain: Aβ40
T3 sequence (P05067 672-711 limits assumed): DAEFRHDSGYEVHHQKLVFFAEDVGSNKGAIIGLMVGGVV
Procedure: as §1

synthetic Aβ42 peptide = target: T4, synthetic Aβ42 peptide (UniProt P05067 672-713); assay: as above
T4 construct: domain: Aβ42; also called Abeta42
T4 sequence (P05067 672-713 limits assumed): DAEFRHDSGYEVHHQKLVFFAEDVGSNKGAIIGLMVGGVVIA
Procedure: as §1

[1] = target: Aβ34 G33A variant (G33A modified neo-epitope); assay: SPR (Biacore T200), single-cycle kinetics, Aβ34 variant peptide as analyte (7.8-2000 nM) over mab34 captured on an anti-mouse Fc sensor
Aβ34 G33A variant (G33A modified neo-epitope), sequence (peptide, as listed by the source G33A G33A G33A G33A): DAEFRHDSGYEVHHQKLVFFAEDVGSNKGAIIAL
Procedure: as §1

synthetic Aβ34 peptide = target: T5, synthetic Aβ34 peptide; assay: SPR (Biacore T200), multi-cycle titration of Aβ34 (0-1.6 µM, 3-fold series) over mab34 captured on an anti-mouse Fc sensor; steady-state affinity fit of Requilibrium against concentration
T5 construct: Synthetic peptide from PSL, Germany
T5 sequence (peptide, as listed by the source): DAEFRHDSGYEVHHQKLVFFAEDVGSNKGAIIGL
Procedure: as §1, with “To assess binding specificity, a variety of Aβ peptides (0 2 μM; 4-fold dilution series) were titrated over reference (anti-mouse Fc antibody only) and active (1000 RU mab34 captured to anti-mouse Fc antibody) surfaces in single-cycle kinetic mode (25 uL/min.×5 min. association+10 min. dissociation).” left out

T1 sequence (P05067 672-706 limits assumed): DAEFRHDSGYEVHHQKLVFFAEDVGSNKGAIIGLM

- binding result (synthetic Aβ35 peptide): no binding (tested: 2000 nM)
- binding result (synthetic Aβ38 peptide): no binding (tested: 2000 nM)
- binding result (synthetic Aβ40 peptide): no binding (tested: 2000 nM)
- binding result (synthetic Aβ42 peptide): no binding (tested: 2000 nM)
- binding result [1]: no binding (tested: 2000 nM)
- Kd (synthetic Aβ34 peptide): ~40 nM
B1: mab34 (monoclonal neo-epitope anti-Aβ34 antibody) (antibody, V domains shown)
VH: VKLVESGGGLVKPGGSLKLSCAASGFTFSTYAMSWVRQTPEKRLEWVASISSGGNTYYPDSVKGRFTISRDNARHILYLQMSSLRSEDTAMYYCARDSYYFGNSVYYAMDYWGQGTSVTVSS
VL: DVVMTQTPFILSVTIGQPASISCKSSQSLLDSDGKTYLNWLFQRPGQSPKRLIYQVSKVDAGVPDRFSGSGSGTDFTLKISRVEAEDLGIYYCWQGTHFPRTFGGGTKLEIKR
notes: Mouse monoclonal from a hybridoma (Balb/cJ mice immunised with Aβ27-34-KLH); In SPR it was captured on an anti-mouse Fc surface
